Measurements: patent US20260250651, “CAS12 PROTEINS AND USES THEREOF” (GUANGZHOU REFORGENE MEDICINE CO., LTD., published 2026)

Key:
Cas12i-133 = biological target: T1, Cas12i-133 (N295R,N260R,G705R,Q971E); assay: cell_activity; 293T indels
T1 chain: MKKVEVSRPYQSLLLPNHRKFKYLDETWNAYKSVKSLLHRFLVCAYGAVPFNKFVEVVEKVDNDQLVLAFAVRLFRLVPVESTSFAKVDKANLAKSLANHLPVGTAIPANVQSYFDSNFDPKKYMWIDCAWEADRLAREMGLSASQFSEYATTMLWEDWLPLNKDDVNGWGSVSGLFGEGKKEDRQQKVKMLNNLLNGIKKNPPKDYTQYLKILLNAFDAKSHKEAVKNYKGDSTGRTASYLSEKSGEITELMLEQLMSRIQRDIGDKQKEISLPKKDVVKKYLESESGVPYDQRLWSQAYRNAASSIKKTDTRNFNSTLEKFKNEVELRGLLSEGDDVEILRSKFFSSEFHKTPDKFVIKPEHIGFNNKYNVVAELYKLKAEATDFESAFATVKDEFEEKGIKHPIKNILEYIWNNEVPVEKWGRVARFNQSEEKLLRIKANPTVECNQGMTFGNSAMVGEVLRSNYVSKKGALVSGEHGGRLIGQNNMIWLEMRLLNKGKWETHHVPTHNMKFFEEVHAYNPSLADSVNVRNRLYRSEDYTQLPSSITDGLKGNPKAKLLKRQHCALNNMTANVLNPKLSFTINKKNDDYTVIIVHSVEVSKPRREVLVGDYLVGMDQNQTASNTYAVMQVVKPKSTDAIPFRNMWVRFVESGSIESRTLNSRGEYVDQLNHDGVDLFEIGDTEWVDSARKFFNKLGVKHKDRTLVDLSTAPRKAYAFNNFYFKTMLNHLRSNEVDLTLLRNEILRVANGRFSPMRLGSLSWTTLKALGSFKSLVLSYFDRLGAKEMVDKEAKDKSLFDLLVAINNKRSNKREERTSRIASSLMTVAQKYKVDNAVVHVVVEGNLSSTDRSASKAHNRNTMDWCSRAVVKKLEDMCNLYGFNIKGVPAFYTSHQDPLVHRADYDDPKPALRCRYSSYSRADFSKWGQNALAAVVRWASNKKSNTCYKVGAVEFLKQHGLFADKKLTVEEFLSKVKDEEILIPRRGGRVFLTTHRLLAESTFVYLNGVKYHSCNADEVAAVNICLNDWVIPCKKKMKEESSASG
Protocol: (§1) Plating: The 293T cell line was plated when the confluence reached 70-80%, and the number of cells seeded in a 24-well plate was 5*10\hat{ }5 cells/well.
(§2) Transfection: After 12-14 hours of plating, transfection was performed. 100 μl of Opti-MEM, 1.5 μl of PEI (Yisheng Bio, Polyethylenimine Linear (PEI) MW25000), 250 ng of the mutant clone plasmid from Example 2, and 250 ng of gRNA plasmid for targeting endogenous genes were added to each well of a 24-well plate. The mixture was incubated at room temperature for 20 minutes and then added to 293T cells for transfection. After transfection overnight, the medium was replaced with fresh medium and cultured for the next period.
(§3) DNA extraction, PCR amplification, and Sanger sequencing: After culturing for 72 hours, cells were washed with PBS, and then 100 μl of cell lysis buffer (Viagen, DirectPCR® Lysis Reagent (Cell)) was added for lysis to obtain a lysate containing genomic DNA. The genomic DNA was amplified in the region near the target sequence, and the PCR product was sent to a sequencing company for Sanger sequencing.

Cas12i-111 = biological target: T2, Cas12i-111 (N295R,N260R,G705R,L332R); assay: cell_activity; 293T indels
T2 chain: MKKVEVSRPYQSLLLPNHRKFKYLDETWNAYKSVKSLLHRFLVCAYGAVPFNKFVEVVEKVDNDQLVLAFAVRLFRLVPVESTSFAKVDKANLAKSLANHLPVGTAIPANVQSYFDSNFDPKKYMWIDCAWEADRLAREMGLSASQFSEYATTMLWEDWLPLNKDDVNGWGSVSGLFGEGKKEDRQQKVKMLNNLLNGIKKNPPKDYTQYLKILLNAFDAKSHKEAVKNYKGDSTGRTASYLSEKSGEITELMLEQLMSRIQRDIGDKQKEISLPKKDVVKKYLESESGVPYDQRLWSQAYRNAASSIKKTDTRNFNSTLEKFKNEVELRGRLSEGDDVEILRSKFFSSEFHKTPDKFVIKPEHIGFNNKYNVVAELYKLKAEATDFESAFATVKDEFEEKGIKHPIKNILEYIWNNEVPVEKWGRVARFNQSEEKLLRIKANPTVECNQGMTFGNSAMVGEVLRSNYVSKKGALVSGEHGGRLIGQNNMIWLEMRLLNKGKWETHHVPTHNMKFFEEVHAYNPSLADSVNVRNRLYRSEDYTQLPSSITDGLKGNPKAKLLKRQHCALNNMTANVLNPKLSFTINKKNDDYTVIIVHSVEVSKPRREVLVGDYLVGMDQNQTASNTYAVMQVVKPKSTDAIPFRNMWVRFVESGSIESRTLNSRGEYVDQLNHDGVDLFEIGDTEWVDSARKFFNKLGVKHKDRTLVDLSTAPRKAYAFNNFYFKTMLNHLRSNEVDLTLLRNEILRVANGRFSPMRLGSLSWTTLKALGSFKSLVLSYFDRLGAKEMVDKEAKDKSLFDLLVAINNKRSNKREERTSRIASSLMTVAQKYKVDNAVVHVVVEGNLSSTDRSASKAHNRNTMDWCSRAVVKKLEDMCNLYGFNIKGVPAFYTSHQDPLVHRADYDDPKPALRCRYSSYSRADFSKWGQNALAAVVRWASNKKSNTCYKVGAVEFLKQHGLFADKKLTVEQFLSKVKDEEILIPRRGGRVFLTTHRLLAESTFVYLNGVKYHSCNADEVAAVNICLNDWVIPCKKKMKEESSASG
Protocol: as §1, §2, §3

B1: gRNA-TTR ; TTR target (ssRNA ; dsDNA)
RNA: AGAGAAUGUGUGCAUAGUCACACCAGUAAGAUUUGGUGUCUAU
DNA 1: CAGTAAGATTTGGTGTCTAT
DNA 2: ATAGACACCAAATCTTACTG
relative indel editing efficiency (Cas12i-133): 4.95 fold of wild type | relative indel editing efficiency (Cas12i-111): 3.91 fold of wild type

B2: gRNA-HBB ; HBB target (ssRNA ; dsDNA)
RNA: AGAGAAUGUGUGCAUAGUCACACUAUGCAGAAAUAUUGCUAUUGCCU
DNA 1: TATGCAGAAATATTGCTATTGCCT
DNA 2: AGGCAATAGCAATATTTCTGCATA
relative indel editing efficiency (Cas12i-133): 0.78 fold of Cas12i-69 | relative indel editing efficiency (Cas12i-111): 1.01 fold of Cas12i-69

B3: gRNA-HBG ; HBG target (ssRNA ; dsDNA)
RNA: AGAGAAUGUGUGCAUAGUCACACACAAGGCAAACUUGACCAAU
DNA 1: ACAAGGCAAACTTGACCAAT
DNA 2: ATTGGTCAAGTTTGCCTTGT
relative indel editing efficiency (Cas12i-133): 1.57 fold of wild type | relative indel editing efficiency (Cas12i-111): 1.53 fold of wild type
